Biological target: the molecule itself
Assay: pull-down; equimolar His6-MBP-CDM1-GFP and TEV-cleaved CDM1-GFP mixed in 20 mM HEPES pH 7.4, 150 mM KCl, 1 mM DTT, room temperature, 2 h; precipitated with anti-His antibody and Protein G beads; blot with anti-GFP

B1: CALLOSE … MICROSPORES1 (CDM1) fused to G3GFP, made in E. coli (His6-MBP-CDM1-GFP and its TEV-cleaved form CDM1-GFP) (natural protein, Arabidopsis thaliana, UniProt Q9C9F5 1-308, looked up)
chain: MENKIAPFSYSGSSAGNSSSGGVVSSSLYSDQLYKSTRNIMQQRQDMVNREALCYTRLHEASLEAEALRLENTELRSMNLRLKNELNSLIRSSIQNRFDHRSPLRMLSNLSIGGNDADEVENQNRTVNRDDVNDKSPTSVMENEDLNRSSLPKSISVRSNGYSKASQGGGGAAAQSGKPRGTVTKPGTCGQVSTTQKVYVRGGGKKEDQEEEIEVEVYNQGMTKTELCNKWQETGTCPYGDHCQFAHGIKELRPVIRHPRYKTEVCRMVLAGDNCPYGHRCHFRHSLSEQEKLVAAGFKPKSSLKLIT
notes: CDM1 (CALLOSE … MICROSPORE1, C3H15), Arabidopsis thaliana, At1G68200; Self-association test with two differently tagged copies: the bait copy kept His6-MBP (His6-MBP-CDM1-GFP); Both copies carry the C-terminal G3GFP, by which they were detected; also called C3H15; His-MBP-CDM1-G3GFP; source: E. coli BL21-Rosetta, purified (His Mag Sepharose Ni beads, dialysed); not shown: His6, N-terminal, kept; …
binding result: binds

Reference: publication doi:10.1101/2025.08.17.670746, “Post-transcriptional regulation of meiotic transcripts by the RNA binding protein CDM1 is associated with cytoplasmic condensate assemblies” (bioRxiv, 2025)
